Measurements: article PMC7714071, “Interaction of amyloid beta with humanin and acetylcholinesterase is modulated by ATP” (FEBS Open Bio, 2020)

Tests used:
[1] = tested on: AChE-Aβ complex (H1299 cell-conditioned media); assay: ELISA, AChE found in a complex with Aβ in H1299 cell-conditioned media; format: binding, human; details: Fig. 5C,D
Procedure: Human NSCLC cell lines, A549 (ATCC CCL‐185) and H1299 (ATCC CRL‐5803), were purchased from the American Type Culture Collection (ATCC, Manassas, VA, USA). Cells were seeded as we reported earlier in 5 mL HyClone Dulbecco's modified Eagle's medium/nutrient mixture F‐12 (DMEM/F12) (GE Healthcare Life Sciences, Pittsburgh, PA, USA), supplemented with 10% Fetalgro bovine growth serum (FBS; RMBIO, Missoula, MT, USA), 50 U·mL^−1 penicillin, and […] streptomycin (Invitrogen, Life Technologies, Carlsbad, CA, USA) in 25‐cm^2 tissue culture flasks, and allowed to grow overnight in an incubator at 37 °C, 95% humidity, and 5% CO2. The cells were counted after trypan blue staining, with a hemocytometer.
ELISAs were carried out as we previously reported. […] TBST was then used to wash the wells 4× before proceeding in one of two ways: (a) biotinylated samples were analyzed by adding 100 µL streptavidin–HRP conjugate in TBST (1 : 2500 dilution) to the samples followed by incubation for 3 h at RT on a shaker, or (b) samples without biotin were analyzed by adding 100 µL TBST containing the primary antibody as per the manufacturer's recommendation, incubating for 3 h at RT on a shaker, followed by washing the wells 4× with TBST. […] The reaction was stopped with 100 µL 2 M H2SO4 after incubating at RT for 0.5–15 min, resulting in a yellow color change, measured by absorbance at 450 nm. […]

Aβ42 [2] = details: HN and AChE compared; cited from earlier work
Source text: Humanin has been previously reported to bind amino acid residues 17–28 of Aβ (Fig. 1). AChE is also known to bind Aβ (1–16) and the Aβ (12–28) region (Fig. 1). Since the binding sites of AChE and HN on Aβ are overlapping, we previously investigated whether HN and AChE can simultaneously bind Aβ [79].

Aβ42 [3] = details: cited from earlier work
Source text: Almost all types of cells produce amyloid beta (Aβ), a peptide well recognized for its role in the development and progression of different stages of Alzheimer's disease (AD). The Aβ peptide is ~ 4 kDa and derived from the sequential processing of the higher molecular weight amyloid precursor protein by two membrane‐bound endoproteases, β‐ and γ‐secretase. Different C‐terminal Aβ heterogeneity results from processing by γ‐secretase, where Aβ40 represents the most abundant isoform (~ 90%) as compared to Aβ42 (~ 10%). Self‐assembled Aβ40/42 peptides into amyloid fib ... || Amino acid residues involved in direct interactions between HN and Aβ40 were identified previously by molecular modeling. The specific epitopes at the binding interface between HN and Aβ40 were identified, by proteolytic epitope excision and extraction in addition to affinity–mass spectrometric data analysis, to be HN (5–15) and Aβ (17–28). […] Inhibiting the 17–28 region of Aβ reduced aggregation of the neurotoxic amyloid fibrils and related cytotoxicity in SH‐SY5Y, a human neuroblastoma cell ... || Acetylcholinesterase (AChE) is an enzyme known for its role in terminating acetylcholine‐mediated neurotransmission at the synaptic cleft. The majority of the cortical AChE in the Alzheimer's brain is mainly associated with the amyloid core of senile plaques. […]

B1: acetylcholinesterase (protein)
chain: EGREDAELLVTVRGGRLRGIRLKTPGGPVSAFLGIPFAEPPMGPRRFLPPEPKQPWSGVVDATTFQSVCYQYVDTLYPGFEGTEMWNPNRELSEDCLYLNVWTPYPRPTSPTPVLVWIYGGGFYSGASSLDVYDGRFLVQAERTVLVSMNYRVGAFGFLALPGSREAPGNVGLLDQRLALQWVQENVAAFGGDPTSVTLFGESAGAASVGMHLLSPPSRGLFHRAVLQSGAPNGPWATVGMGEARRRATQLAHLVGCPPGGTGGNDTELVACLRTRPAQVLVNHEWHVLPQESVFRFSFVPVVDGDFLSDTPEALINAGDFHGLQVLVGVVKDEGSYFLVYGAPGFSKDNESLISRAEFLAGVRVGVPQVSDLAAEAVVLHYTDWLHPEDPARLREALSDVVGDHNVVCPVAQLAGRLAAQGARVYAYVFEHRASTLSWPLWMGVPHGYEIEFIFGIPLDPSRNYTAEEKIFAQRLMRYWANFARTGDPNEPRDPKAPQWPPYTAGAQQYVSLDLRPLEVRRGLRAQACAFWNRFLPKLLSATDTLDEAERQWKAEFHRWSSYMVHWKNQFDHYSKQDRCSDL
AChE detected in complex with Aβ [1]: No AChE was detected above background | affinity for Aβ42 (Aβ42 [2]): comparable affinities | effect on Aβ42 oligomeric formation (Aβ42 [3]): increases Aβ42 oligomeric formation
